Test: yeast display, Sf9 membrane polyspecificity reagent, FACS + sequencing; frameworks hold sequencing errors
Procedure, shortened: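 A nanobody's polyreactivity label depends on the gate it was sorted from. Yeast display cells were stained with 10% biotinylated, detergent-solubilized Sf9 membrane reagent for 1 hour at 4 °C, enriched on streptavidin microbeads and sorted by FACS. The low and high (top ~1%) gates were set on anti-HA fluorescence for expression and streptavidin fluorescence for reagent binding.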

| Sequence | polyreactivity (PSR sort gate) |
| --- | --- |
| QVQIVESGGGLVQAGGSLRLSCAASGSIFLKYAMGWYRQAPGKERELVATFSRGGSTNYADSVKGRFTISRDNAKITVYFQMNSLKPEDTAVYNCARRRTYPPGRYYYWGQGTQVTVSS | high polyreactivity |
| QVQIVESGGGLVQAGGSLRLSCAASGSIFPAYAMGWYRQAPGKEREFVAAISGTGGITYYADSVKGRFTISRDNAKNTVYLQMNSLKPEDTAVYFCAAPVYNRDKHDYDYWGQGTQVTVSS | low polyreactivity |
| QVQIVESGGGLVQAGGSLRLSCAASGSIFRKNAMGWYRQAPGKERELVAAITRRGGSTYYADSVKARFTISRDNAKNTVYLQMNSLKPEDTAVYYCAATGGAPYKIEWGQGTQVTVSS | low polyreactivity |
| QVQIVESGGGLVQAGGSLRLSCAASGSIFTPYAMGWYRQATGKERELVADIDASGGGTYADSVKGRFTISRDNANNTVYLQMNSLKPEDTAVYYCNTDPYSSAWYNYDYWGQGTQVTVSS | low polyreactivity |
| QVQIVESGGGLVQAGGSLRLSCAASGSILYYYAMGWYRQAPGKERELVATITSGGTTNYADSVKGRFTISRDNAKNTFYLQMNRLKPEDTAVYYCATEEVYGQGNYWGQGTQVTVSS | low polyreactivity |
| QVQIVESGGGLVQAGGSLRLSCAASGSTFGKYAMGWYRQAPGKERELVAAITRRTGSTYYADSVKGRFTISRDNAKNTVYLQMNSLKPEDTAVYYCAARLPQYRYDYWGQGTQVTVSS | high polyreactivity |
| QVQIVESGGGLVQAGGSLRLSCAASGSTFRLYVMGWYRQAPGKERELVARISSRGGSTYYADSVKGRFTISRDNAQNTVYLQMTSLKPEDTAVYYCAKDVDLDTWKYDYWGQGTKVTVSS | low polyreactivity |
| QVQIVESGGGLVQAGGSLRLSCAASGSTFTWYAMGWYRQAPGKERELVAAIRYSGDSTYYADSVKGRFTISRDNAKNTVYLQMNSLKPEDTAVYYCAAQYYPQYRRRMNYWGQGTQVTVSS | high polyreactivity |
| QVQIVESGGGLVQAGGSLRLSCAASGSTFYRNAMGWYRQAPGKEREFVATISWNGGNTYYADSVKGRFTISRDNAKNTVYLQMNSVKPEDTAVYYCDARVKYRTSGGTVVSYDYWGQGTQVTVSS | high polyreactivity |
| QVQIVESGGGLVQAGGSLRLSCADSGIIFYYNAMGWYRQAPGKERELVAAIDDRGDSTYYADSVKGRFTISRDNAKNTVYLQMNSMKPEDTAVYYCAARDRYLYFDAMDYWGQGTLVTVSS | low polyreactivity |
| QVQIVESGGGLVQAGGSLRLSCAPSGRIITRKTMGWYRQAPGKEREFVAAISQSGGRTYYADSVKGRFTISRDNAKNTVYLQMNSLKPEDTAVYYCNAQFARSSGFNYWGQGTQVTVSS | high polyreactivity |
| QVQIVESGGGLVQAGGSLRLSCDASGSILLWNTMGWYRQAPGKERELVADSSLSASSTYYADSVKGRFTISRDNAQNTVYLELNSLKPEDTAVYFCAADEYSPDYGQGYDYWGEGTQVTVSS | low polyreactivity |
| QVQIVESGGGLVQAGGSLRLSCGASGLSFYYYAMGWYRQAPGKERELVASISTGGNTYYADSVKGRFTISRVNAKNTVYLQMNSLNPEDTAVYYCAAGLYSWSGYASYNSAYGYWGQGTQVTVSS | low polyreactivity |
| QVQIVESGGGLVQAGGSLRLSCPASGSIFPQYAMGWSRQAPRKERELVAGISGSGGGTYYADSVKGRITILRDNAKNNVFLQMNSVKPEETAVYYCNALYAPYGWFYGLYDYGGQGTQVTVSS | low polyreactivity |
| QVQIVESGGGLVQAGGSLRLSWAASGSNLDFNAMGWYRQAHGKERELVAAINNSGGSTYYADSLKGRFTISRDTAKKTVYLQMNRLKPEDTAVYYCARYAFWKRAYWGQGTQETVSS | low polyreactivity |
| QVQIVESGGGLVQAGGSLRVSCAASGSILSKYDMGWYRPAPGKERELVAVISSRGGSTYYADSVKGRFTISRDNAKNTVYLQMNSLKPEDTAVYYCNARSGRGYGYWGQGTQVTVSS | high polyreactivity |
| QVQIVESGGGLVQAGGSLRVTCAASGSIFPPKAMGWYRQAPGKERELLADISGSGRTYYADSVKGRFTISRDNAKNTVYLQMNSLNPEDTAVYYCAARQQRRPTTRVFGYWGQGTQVTVSS | high polyreactivity |
| QVQIVESGGGLVQAGGSRRFSCAASGGTFNWNAMGWYRQAPGKERELFAAINRTGGSTYYADSVKARFTISRDNAMNTVYLQMNSLKPEDTAVYYCAKRYYRFYLGWPPEDSWGQGTQVSVSS | low polyreactivity |
| QVQIVESGGGLVQAGRSLRLSCAASGLIFRRYTMGWYRQAPGKERELVAAIRNSGSSTDYADSVKGRFTISRDNAKNTVYLQMNSLKPEYTAVYYCAKRSACKLTYDSWGQGTQVTGSS | low polyreactivity |
| QVQIVESGGGLVQPGGSLRLSCAASGITFYKYAMGWYRPAPGKERELLAAISKSGGRTYYADSVKGRFTISRDNAKNTVYLQMNSLKPEDTAVYYCNAQPNYAYHGEDDYWGQGNQVTVSS | high polyreactivity |
| QVQIVESGGGLVQPGGSLRLSCAASGSTFTRNAMGWYRQAPGKERELVAAISFSGGSTYYADSVKGRFTISRDTAKNTVYLQMNSLKPEDTAVYYCAAEEGRVFSGGYDYWGQGTQVTVSS | high polyreactivity |
| QVQIVESGGGVVQAGGSLRLICAASGSTFLVYAMGWYRQAPGKERELVAAISGRGGRTYYADSVKGRFTISRDIAKNTVYLQMNSLKPEDTAVYYCAKVSKYGAYDYWGQGTQVTVSS | high polyreactivity |

| Sequence | polyreactivity (PSR sort gate) |
| --- | --- |
| QVQIVESGGRLVQAGGSLRLSCAASGLTFRRYAMGWYRQAPGKERELVASITYRGGSTYYADSVKARFTISRDNAKNTVYLQINSLKPEDTAVYHCNAKGQRNKRCRGYWGQGSQVTVSS | high polyreactivity |
| QVQIVESGGVLVQAGGSLRLSCAASGRIFGSYAMGWYRQAPGKERELVAGIRSVGSTNYADSVKGRFTISRDNEKNTVYLQMNSLKPEDTAVYYCAACLWHPTFGYWGQGTQVTVSS | low polyreactivity |
| QVQIVESGRGLVQAGGSLRLSCAASGSIFKKYAMGWYRQAPGKERELVAAISSRGGRTYYADSVKGRFTISRDNAKNTVYLQMNSLKPEDTAVYYCNTDISQPGAYDYWGQGTQVTVSS | high polyreactivity |
| QVQIVESWGGLVQAGGSLRLSCAASGSTIYTYPMGWYRQAPGKERELFAAISYRGGSTYYADSVKVRYSISRDNAKNTVYLQMKSLKPEDTAVYYCNVDGVVVGTKRGGYDYWGQGTQVTVSS | low polyreactivity |
| QVQLAESGACLVQAGGRLRLSCAASGRIFSFYAMGWYRQAPGKERELVITSGGDTNYADSVKGRFTISRDNAKNSVYLQMNSLKPEDTAVYYCNAEGDRSQPYNFDYWGQGTQVTVSS | low polyreactivity |
| QVQLAESGGGLVQAGGSLRLSCAASGLTFNAYAMGWYRQAPGKERELVADITTSDGSTFYADSVKGRFTISRDNAKNTVYLQMNRLKPEDTAVYYCNADAYGWYSGPWFKWLLWYDYWGQGTQVTVSS | low polyreactivity |
| QVQLAESGGGLVQAGGSLRLSCAASGRTFGRYVMGWYRQAPGKERELVAAITSSSSSTYADSVKGRFTISRDNAKNTVYLQMNSLKPEDTAVYYCNKRYTSRHRPEYDYWGQGTQVTVSS | high polyreactivity |
| QVQLAESGGGLVQAGGSLRLSCAASGSIFWGNAMGWYRQATGKERELVAAIDWSGGSTYYADSVKGRFTISRDNGKNTVYLQMNSLKAEDTAVYYCAASGRYDYDYWGQGTQVTVSS | low polyreactivity |
| QVQLAESGGGLVQAGGSLRLSCAASGSNFSPNAMGWYRQAPGKERELVAAITAGARTNYADSVKGRFTISRDNSKNTFYLQMNSLKPEDTAVYYCNAESYYDYNYWGQGTQVTVSS | low polyreactivity |
| QVQLDESGRGLVQAGGSLRLSCAASGSTFGRYAMGRYREAPGKERELVAAISRGGGSTYYADSVKGRFTISRDNAKNTVYLQMNSLKPEDTAVYYCATDQNYPYSGGGDYWGQGTQVTVSS | low polyreactivity |
| QVQLEDSGGGLVQAGGSLPLSCAASGRTFGLNVMGWSRQATGTERELLASIRNIGGSTYYADSVKGRFTISCDNAKNTVYLQMNSLKPEDTAVFYCAAVTRSWVHYRYYYWGQGTQVTVSS | high polyreactivity |
| QVQLEDSGGGLVQAGGSLRLSCAASGATFDGYTMAWYRQAPGKERELVAAISWRGTSTYYADSVKGRFTISRDNAKNTVYLQMNSLKPDDTAVYYCAADAYSGYDYWGQGTQVNVSS | low polyreactivity |
| QVQLEDSGGGLVQAGGSLRLSCAASGRIFGKYAMGWYRQAPGKERELVAAISYSGGRTYYADSVKGRFTISRDNAKNTVYLQMNSLTPEDTAVYYCAAVYHGINSYDYDYSGQGTQVTVSS | high polyreactivity |
| QVQLEDSGGGLVQAGGSLRLSCAASGRIFGTNAMGWYRQAPGKERELVATITRGGGNTYYADSVKGRFTISRDNAKNTVYLQMNSLKPEDTAVYYCAAKFNRFAWYSHYDYWGQGTQVTVSS | low polyreactivity |
| QVQLEDSGGGLVQAGGSLRLSCAASVSTFSRNAMGWYRQAPGKEREFVAAISWSGSSTYYADSVKGRFTISRDNAKNTVFLQMNSLKPEDTAVYYCAARETWYPYYWMGYWGQGTQVTVSS | high polyreactivity |
| QVQLEDSGGGLVQAGGSLRLSSAASGIIFYPNAMGWYRQSPGKERELVAAITSDGSTYYADSVKGRFTISRDNAKNTVYLQMNSLKPEDTAVYYCDDWDDYGYDYWGQGTQVTVSS | low polyreactivity |
| QVQLEDSGGGLVQAGGSLRLTSPASGSIFWYYDMGWYRQAPGKERELVAAITVIGSSTNYADSVKGRFTNSRDNAKITVYLQMNRLKPEDTAVYYCAAVRPPTPSRRREDYWGQGTQVTVSS | low polyreactivity |
| QVQLEDSRGGLVQAGGSLRLSCAASGLILASYAMGWNRQAQGKERQLVSAISRSGGSTYYEDSVKVRFTISRDNAKITVYLQMKSLKPEHTAVYYFAAKYPPKTPVNTYGNSFYYWGQGTQVTVSS | low polyreactivity |
| QVQLEEAGGGLVQAGGSLRLRCAASGRTFWYYAMGWYRQAPGKERELVAAITSGGSTNYADSVKGRFTISRDNEKNTVYLQMNSLKPEDTAVYYCAKLFRKRRSWDWYDYWGQGTQVTVSS | high polyreactivity |
| QVQLEESAGGLVQAGGSLRLSCAASGFTFRRYARGWYRQAPGKERELVAAISSRGGSTYYADSVKGRFTISRDNAKNTGYLQMKSLKPEDTAVYYCNRDAWGGTDLLGYNYWGHGTQVTVSS | high polyreactivity |
| QVQLEESAGGLVQAGGSLRLSCAASGRIFKAYAMGWYRQAPGKERELVASISRDGSTSYADSVKGRFTISRDNEKNTVYLQMNSLKPEDTAVFYCAGPSYRTRYYFWGQGTQVNVSS | high polyreactivity |

From the nanobody polyreactivity screen of Harvey et al. (2022)
